# Assay results as given in publication PMC6315137, “Pyridine Nucleotide Coenzyme Specificity of p-Hydroxybenzoate Hydroxylase and Related Flavoprotein Monooxygenases” (Frontiers in Microbiology, 2018).
# B1: PHBHCn1 (Cupriavidus pinatubonensis JMP134) (protein)
# chain: MRTRVAIIGAGPAGLLLGHLLQRAGIDSVILEDCTQAHVEARIRAGVLEQGTVDLLEEAGVAARLREQGMVHHGIDLLFDGQRHRIDLSGLTGGRAITVYGQHEVVRDLIAARQACGAPLLFEVSQVALHGLDTQSPSLSFEHGGQRHVLACDFIAGCDGSHGVSRHAVPAGALQVFERSYPFAWLGILASAAPAAQELIYASHARGFALFSMRSPEITRLYLQCRPDEDLAGWTDRRIWDELHARLETGDGWHLNEGPVLQKGITPMRSLVTEPMQYGRLFLAGDAAHIVPPTGAKGMNLAVADVRNLAHALVTHYRHGRDDLLAGYSSACLARVWRAEHFSWWMTSLLHRFDDHTPFTARLQHAELAYVCASQAASRMLAENYVGLPFAPLPA
# notes: N-terminal His10-tag, codon-optimized gene, E. coli BL21 (DE3) pLysS, Ni-chelate purified; motif 32-EDCTQAHVEAR
# B2: PHBHCn2 (Cupriavidus pinatubonensis JMP134) (protein)
# chain: MRTQVAIIGAGPAGLLLGQLLSRAGIDNIIVEQRSPEYVLGRIRAGILESVTVDALERAGVAARLHDEGLPHAGIELSFNGQRHRIDLQALTGRTVTVYGQTEVTRDLMAARQAEGTTTIYEAADVSLHGFDGTRPLVRYRKDGATHEIECDYIAGCDGFHGVSRQSVPATSSQLFERVYPFGWLGILSDTPPVADELIYASHERGFALCSMRSKARSRYYVQVPSTERVEDWSDERFWDELRSRLDPQAAESLVTGPSIEKSIAPLRSFVCEPMRFGRLFLAGDAAHIVPPTGAKGLNLAASDVLYLADALTARYQQDDLRELDSYSEKCLRRIWKAERFSWWMTSLLHRFPDADAFSARIQQAELDFLVSSEAACKALAENYVGLPY
# notes: N-terminal His10-tag, codon-optimized gene, E. coli BL21 (DE3) pLysS, Ni-chelate purified; motif 32-EQRSPEYVLGR
# B3: PHBHRo1CP (Rhodococcus opacus) (protein)
# chain: MNTQVGIVGGGPAGLMLSHLLHLKGIDSVVLESRTREEVEGTIRAGVLEQNTVDLMVDTGLGDRVKREGLTHHGIELRFGGRGHRIDFDELTNGRAVTVYPQHEVLKDLIARRLEDDGDIRFGVSDVQVHDHTSDNPKITYLDADGNEQTLTCALVAGCDGSRTSTRGLIPETTVRTDHFRQYPFAWFGILAEAPPSSEELIYANHPRGFALISTRTPEVQRHYLQVDPDDSVDNWSDDRIWSELHARVDGEGAEIKDGKIFQKSILQFRSFVCEPMQHGNLFLAGDAAHTVPPTGAKGMNLAIADVYFLSQAMAEYFATRSRAGLEGYTDSVLPRVWRTQHFSWWMSSMLHRLPDETGFGHKRQVAELDMVTRSVAGRTLIAENYVGTPLG
# notes: His10-tagged, pET16bp, E. coli, Ni-chelate purified; motif 32-ESRTREEVEGT
# Columns and labels:
# Test in all cases: purified protein
# purified protein [1] = substrate: O=C(O)c1ccc(O)cc1; format: biochemical, Cupriavidus pinatubonensis; details: 175 μM NADH, 60 μM FAD, 50 mM Tris/sulfate pH 7.5, 30°C
# purified protein [2] = substrate: NC(=O)C1=CN([C@@H]2O[C@H](COP(=O)(O)OP(=O)(O)OC[C@H]3O[C@@H](n4cnc5c(N)ncnc54)[C@H](O)[C@@H]3O)[C@@H](O)[C@H]2O)C=CC1; format: biochemical, Cupriavidus pinatubonensis; details: 500 μM 4-hydroxybenzoate, 60 μM FAD, 50 mM Tris/sulfate pH 7.5, 30°C
# purified protein [3] = substrate: O=C(O)c1ccc(O)cc1; format: biochemical, Cupriavidus necator; details: 175 μM NADPH, 60 μM FAD, 50 mM Tris/sulfate pH 7.5, 30°C
# purified protein [4] = substrate: NC(=O)C1=CN([C@@H]2O[C@H](COP(=O)(O)OP(=O)(O)OC[C@H]3O[C@@H](n4cnc5c(N)ncnc54)[C@H](OP(=O)(O)O)[C@@H]3O)[C@@H](O)[C@H]2O)C=CC1; format: biochemical, Cupriavidus necator; details: 500 μM 4-hydroxybenzoate, 60 μM FAD, 50 mM Tris/sulfate pH 7.5, 30°C
# purified protein [5] = substrate: O=C(O)c1ccc(O)cc1; format: biochemical, Rhodococcus opacus; details: 175 μM NADH, 60 μM FAD, 50 mM Tris/sulfate pH 7.5, 30°C
# purified protein [6] = substrate: NC(=O)C1=CN([C@@H]2O[C@H](COP(=O)(O)OP(=O)(O)OC[C@H]3O[C@@H](n4cnc5c(N)ncnc54)[C@H](OP(=O)(O)O)[C@@H]3O)[C@@H](O)[C@H]2O)C=CC1; format: biochemical, Rhodococcus opacus; details: 500 μM 4-hydroxybenzoate, 60 μM FAD, 50 mM Tris/sulfate pH 7.5, 30°C
# purified protein [7] = substrate: NC(=O)C1=CN([C@@H]2O[C@H](COP(=O)(O)OP(=O)(O)OC[C@H]3O[C@@H](n4cnc5c(N)ncnc54)[C@H](O)[C@@H]3O)[C@@H](O)[C@H]2O)C=CC1; format: biochemical, Rhodococcus opacus; details: 500 μM 4-hydroxybenzoate, 60 μM FAD, 50 mM Tris/sulfate pH 7.5, 30°C
protein,measurement,setting,value
B1,Km,purified protein [1],20.2 ± 2.3 µM
same,Vmax,purified protein [1],9.9 µmol/min/mg
same,kcat,purified protein [1],7.6 ± 0.2 s⁻¹
same,Km,purified protein [2],49.8 ± 5.6 µM
same,Vmax,purified protein [2],12.3 µmol/min/mg
same,kcat,purified protein [2],9.4 ± 0.4 s⁻¹
B2,Km,purified protein [3],26.4 ± 4.4 µM
same,Vmax,purified protein [3],27 µmol/min/mg
same,kcat,purified protein [3],18 ± 0.7 s⁻¹
same,Km,purified protein [4],146 ± 20 µM
same,Vmax,purified protein [4],49.1 µmol/min/mg
same,kcat,purified protein [4],37 ± 2.8 s⁻¹
B3,Km,purified protein [5],30.4 ± 2.4 µM
same,Vmax,purified protein [5],16.8 µmol/min/mg
same,kcat,purified protein [5],12.9 ± 0.2 s⁻¹
same,Km,purified protein [6],153 ± 16 µM
same,Vmax,purified protein [6],19.8 µmol/min/mg
same,kcat,purified protein [6],15 ± 1.5 s⁻¹
same,Km,purified protein [7],39.7 ± 5.0 µM
same,Vmax,purified protein [7],20 µmol/min/mg
same,kcat,purified protein [7],15.3 ± 0.7 s⁻¹
